{"source": "patent US7105327", "proteins": {"B1": {"name": "recombinant streptokinase from Streptococcus equisimilis (ATCC 9542) (protein)", "chain": "IAGPEWLLDRPSVNNSQLVVSVAGTVEGTNQDISLKFFEIDLTSRPAHGGKTEQGLSPKSKPFATDSGAMSHKLEKADLLKAIQEQLIANVHSNDDYFEVIDFASDATITDRNGKVYFADKDGSVTLPTQPVQEFLLSGHVRVRPYKEKPIQNQAKSVDVEYTVQFTPLNPDDDFRPGLKDTKLLKTLAIGDTITSQELLAQAQSILNKNHPGYTIYERDSSIVTHDNDIFRTILPMDQEFTYRVKNREQAYRINKKSGLNEEINNTDLISEKYYVLKKGEKPYDPFDRSHLKLFTIKYVDVDTNELLKSEQLLTASERNLDFRDLYDPRDKAKLLYNNLDAFGIMDYTLTGKVEDNHDDTNRIITVYMGKRPEGENASYHLAYDKDRYTEEEREVYSYLRYTGTPIPDNPNDK"}}, "target": "plasminogen", "sequence (P00747 20-810)": "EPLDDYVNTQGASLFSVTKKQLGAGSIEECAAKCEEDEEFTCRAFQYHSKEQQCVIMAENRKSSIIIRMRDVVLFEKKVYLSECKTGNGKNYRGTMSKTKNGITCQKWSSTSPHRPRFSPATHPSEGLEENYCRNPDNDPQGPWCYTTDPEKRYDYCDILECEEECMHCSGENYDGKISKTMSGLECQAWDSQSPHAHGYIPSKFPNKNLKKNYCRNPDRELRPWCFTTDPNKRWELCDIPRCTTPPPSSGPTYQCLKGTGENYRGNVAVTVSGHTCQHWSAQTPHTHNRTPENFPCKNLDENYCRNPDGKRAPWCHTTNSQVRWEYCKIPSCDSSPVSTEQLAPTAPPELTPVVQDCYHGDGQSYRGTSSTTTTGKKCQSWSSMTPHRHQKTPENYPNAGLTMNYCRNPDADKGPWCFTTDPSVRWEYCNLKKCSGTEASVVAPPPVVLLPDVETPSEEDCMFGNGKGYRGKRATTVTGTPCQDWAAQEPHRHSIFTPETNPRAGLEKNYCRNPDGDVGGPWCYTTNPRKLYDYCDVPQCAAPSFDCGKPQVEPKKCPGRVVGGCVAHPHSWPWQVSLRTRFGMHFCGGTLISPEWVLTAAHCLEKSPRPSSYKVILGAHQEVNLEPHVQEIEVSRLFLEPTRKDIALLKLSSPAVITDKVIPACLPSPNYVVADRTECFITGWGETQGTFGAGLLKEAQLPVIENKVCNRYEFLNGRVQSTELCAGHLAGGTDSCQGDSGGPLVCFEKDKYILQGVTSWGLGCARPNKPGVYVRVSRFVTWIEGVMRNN"}
{"protein": "B1", "values": [{"measurement": "activity in two-stage plasminogen activation assay (plasmin assayed with H-D-Val-Leu-Lys-p-nitroanilide, A405)", "value": "97,500+/-2500 IU/mg protein"}]}
